According to patent US20200347464A1:

Biological target: prostate-specific membrane antigen (PSMA) (human) (UniProt Q04609)
Assay: in vivo near-infrared optical imaging of mouse liver, 72 h after Ad-Track-PSMA or Ad-Track-Luciferase, 48 h after 15 or 30 ug J591-IR800

Chain of prostate-specific membrane antigen (PSMA) (human) (Q04609 whole entry): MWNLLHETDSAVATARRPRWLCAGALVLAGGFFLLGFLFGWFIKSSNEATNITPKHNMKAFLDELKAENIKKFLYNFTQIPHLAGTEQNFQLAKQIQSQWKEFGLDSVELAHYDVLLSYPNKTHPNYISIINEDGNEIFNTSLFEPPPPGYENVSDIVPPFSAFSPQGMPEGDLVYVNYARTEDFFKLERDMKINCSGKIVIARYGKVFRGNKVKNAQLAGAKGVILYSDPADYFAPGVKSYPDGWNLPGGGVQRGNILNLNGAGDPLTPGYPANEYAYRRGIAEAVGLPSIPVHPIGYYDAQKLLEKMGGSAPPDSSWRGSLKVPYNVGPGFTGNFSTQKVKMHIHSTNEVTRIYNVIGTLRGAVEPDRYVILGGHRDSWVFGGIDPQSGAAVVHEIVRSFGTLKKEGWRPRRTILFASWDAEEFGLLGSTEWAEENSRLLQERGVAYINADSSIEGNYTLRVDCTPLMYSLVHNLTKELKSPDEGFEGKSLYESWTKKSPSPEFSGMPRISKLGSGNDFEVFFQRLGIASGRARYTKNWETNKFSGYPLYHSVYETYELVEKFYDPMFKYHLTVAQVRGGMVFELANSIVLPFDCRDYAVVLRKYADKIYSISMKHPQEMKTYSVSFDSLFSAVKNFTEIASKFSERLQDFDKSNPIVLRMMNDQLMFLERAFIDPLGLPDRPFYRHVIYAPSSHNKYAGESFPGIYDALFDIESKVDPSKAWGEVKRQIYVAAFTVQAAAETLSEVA

signal-to-noise ratio (PSMA adenovirus relative to control adenovirus, liver): 3
Substance: J591 antibody conjugated to IRDye 800CW
